Residue numbers refer to the chain shown, from its start.
T1: Recombinant human Angiopoietin-4 (R&D Systems Cat No 964-AN/CF) (human, UniProt Q9Y264 25-503, limits assumed)
T1 construct: Bought reagent; also called Ang4
T1 sequence (looked up): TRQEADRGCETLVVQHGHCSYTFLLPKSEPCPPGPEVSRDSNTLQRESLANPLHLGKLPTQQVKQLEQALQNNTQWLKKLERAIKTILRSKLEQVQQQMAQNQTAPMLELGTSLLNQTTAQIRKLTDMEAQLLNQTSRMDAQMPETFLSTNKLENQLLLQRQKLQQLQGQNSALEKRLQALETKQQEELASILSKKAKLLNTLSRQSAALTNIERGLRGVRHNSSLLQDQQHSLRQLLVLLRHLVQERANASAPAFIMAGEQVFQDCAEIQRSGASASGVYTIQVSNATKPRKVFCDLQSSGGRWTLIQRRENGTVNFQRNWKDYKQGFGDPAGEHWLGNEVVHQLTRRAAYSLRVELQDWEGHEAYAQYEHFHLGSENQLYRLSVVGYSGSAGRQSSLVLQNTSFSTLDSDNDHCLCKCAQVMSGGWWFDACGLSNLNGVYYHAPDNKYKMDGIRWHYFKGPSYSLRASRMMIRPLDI

T2: biotinylated rh Ang2 (R&D Systems Cat No BT623, Lot No BNR174091) (human, UniProt O15123 19-496, limits assumed, biotinylated (sites not given))
T2 construct: Bought reagent; also called biotinylated Ang2
T2 sequence (looked up): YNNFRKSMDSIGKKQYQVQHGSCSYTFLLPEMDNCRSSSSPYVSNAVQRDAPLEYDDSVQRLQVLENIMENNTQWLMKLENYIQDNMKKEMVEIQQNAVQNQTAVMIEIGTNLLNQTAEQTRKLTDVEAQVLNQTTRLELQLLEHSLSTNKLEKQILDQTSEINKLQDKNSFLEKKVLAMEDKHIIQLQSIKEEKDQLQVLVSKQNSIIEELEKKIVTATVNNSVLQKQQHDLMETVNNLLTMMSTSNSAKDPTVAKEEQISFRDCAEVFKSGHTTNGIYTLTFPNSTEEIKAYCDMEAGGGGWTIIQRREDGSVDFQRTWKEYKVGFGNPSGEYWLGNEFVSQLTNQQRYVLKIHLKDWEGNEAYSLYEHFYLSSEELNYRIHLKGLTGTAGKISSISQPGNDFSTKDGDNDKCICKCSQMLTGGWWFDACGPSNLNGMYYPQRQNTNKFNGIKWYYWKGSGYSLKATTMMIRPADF

T3: Recombinant human Angiopoietin-2 (R&D Systems Cat No 623-AN/CF) (human, UniProt O15123 19-496, limits assumed)
T3 construct: Bought reagent; also called Ang2; human Ang2
T3 sequence (looked up): T2 sequence (looked up)

B1: 169-A12 (VHH)
VHH: EVQLVESGGGLVQPGGSLRLSCVASGSIRSIIHMGWYRQAPGNERDLVAVIIDSRTTKYSESVKGRFTISRDNAKNTVYLQMNSLKPEDTAVYYCNALALGTDQSSTFDSWGQGTQVTVSS
notes: Nanobody
B2: 169-C12 (VHH)
VHH: B1 VHH with V23A, A40T, L47M, S60A
notes: Nanobody
B3: 168-A3 (VHH)
VHH: EVQLVESGGGLVQPGGSLRLSCAASGFTLSGNWMYWLRQAPGKGLEWISTITPRGLTAYADSVKGRFTISRDIAENTLYLQMNSLKSGDTAVYYCARDKTGERRGQGTQVTVSS
notes: Nanobody
B4: 168-E5 (VHH)
VHH: B3 VHH with G31S, G55D, I73N, G88E, R97K, T100A
notes: Nanobody
B5: 169-B12 (VHH)
VHH: EVQLVESGGGLVQAGGSLRLSCAASGSIFSINAMGWYRQAPGNQRDLVAAITSGDSTKYADFVKGRFTISRDNAKNTVYLQMNSLKPEDTAVYYCAAELLGKWYWGQGTQVTVSS
notes: Nanobody
B6: 169-E12 (VHH)
VHH: B5 VHH with A33T, S53N, D55G, A60V, F62S, L99S, K102R, Y104G
notes: Nanobody
B7: 169-F11 (VHH)
VHH: EVQLVESGGGLVQPGGSLRLSCATSGFTFSTSWMYWLRQAPGKGLEWVSTITPRGLTDYTNSVKGRFTVSRDNAKNTLYLQMNSLKSEDTAVYYCTKDKNGPPMGQGTQVTVSS
notes: Nanobody
B8: 169-A10 (VHH)
VHH: B7 VHH with T31P, D58E, T60A, V69I, R71K, K97R
notes: Nanobody
B9: 169-C8 (VHH)
VHH: B7 VHH with N61D, V69I, N73S, V92D, K97R
notes: Nanobody
B10: 168-G3 (VHH)
VHH: EVQLVESGGGLVQPGGSLRLSCAASGSTLDYYAIGWYRQAPGKEREWVSCISSSNYGITTYADSVKGRFTISRDNAKNTVYLQMNSLKPEDTAIYYCATNTRRKYGRLCDLNADYWGQGTQVTVSS
notes: Nanobody
B11: 166-C1 (VHH)
VHH: EVQLVESGGGLVQAGGSLRLSCAASGFTFGSTTIGWFRQAPGKEREGVSCISTGDGSTYYAESVKGRFTISSDNAKNTVYLQMNSLKPEDTAVYYCALDQAPMWSSWSAPYEYDYWGQGTQVTVSS
notes: Nanobody
B12: 166-C10 (VHH)
VHH: B11 VHH with S31T, Y59N
notes: Nanobody
B13: 166-F8 (VHH)
VHH: B11 VHH with S31T, G47V, D55G, A61T, S106N
notes: Nanobody
B14: 166-D7 (VHH)
VHH: B11 VHH with G30S, S31D, V48I, K87N, M103L, S106T
notes: Nanobody
B15: 163-E7 (VHH)
VHH: EVQLVESGGGLVQPGGSLRLSCAASGFTFSDYSMSWVRQAPGKGLEWVSAISGGGEVTTYADSVKGRFTISRDNAKNTLYLQMSSLKPEDTALYYCAEHLNFYSVSVRSSPTSQGTQVTVSS
notes: Nanobody
B16: 163-H8 (VHH)
VHH: EVQLVESGGGLVQPGGSLRLSCAASGFTFGSNGMRWVRQAPGKGPEWVSSINSDGTSTYYAESVKGRFTISRDNAKNTLYLQMHSLKPEDTAVYYCTTTENPNPRGPGTQVTVSS
notes: Nanobody
B17: 163-G8 (VHH)
VHH: B16 VHH with T58A, Y59F, H84N, E100M, P107Q
notes: Nanobody
B18: 163-E9 (VHH)
VHH: B16 VHH with G16D, E62D, Y80C, H84N, N101D, N103Y, P107Q
notes: Nanobody; also called Nanobody 163E9; Tie-2 Nanobody 163E9
B19: 162-F11 (VHH)
VHH: EVQLVESGGGLVQAGGSLRLSCAASGFTFDDYAIGWFRQAPGKEREGVACISSSDGSTYYADSVKGRFTISSDNAKNTVYLQMNSLKPEDTAVYSCSAGSVAGCIPYYWGQGTQVTVSS
notes: Nanobody
B20: 162-H10 (VHH)
VHH: EVQLVESGGGLVQPGGSLRLSCAASGFTLDDYAVGWFRQAPGKEREGVSCIGSSYGSTYYADSVKGRFTISRDNAKNTVYLQMNSLKPEDTAVYYCAVQGYSGGYYYTCEDSADFGFWGQGTQVTVSS
notes: Nanobody
B21: 166-D4 (VHH)
VHH: EVQLVESGGGLVQAGGSLRLSCVASGRIFTNTAMGWYRQAPGKWRELVATIYSGGSTKYIDSVKGRFIISRDNTRNTVHLQMNSLKPEDTAVYYCNTVGAGSYWGQGAQVTVSS
notes: Nanobody
B22: 166-E12 (VHH)
VHH: B11 VHH with E1K
notes: Nanobody

biological target: T1, Recombinant human Angiopoietin-4 (R&D …); assay: phage ELISA on coated Ang4: 10 ul monoclonal phage supernatant in 100 ul, anti-M13-HRP, OD 450 nm

binding result | Binder
binds | B1
binds | B2
binds | B3
binds | B4
binds | B5
binds | B6
binds | B7
binds | B8
binds | B9
binds | B10

biological target: T2, biotinylated rh Ang2 (R&D Systems Cat …); assay: competition ELISA: 0.05 ug/ml biotinylated Ang2 pre-incubated with 10 ul periplasmic extract, then on coated Tie2/Fc (4 ug/ml); bound Ang2 detected with extravidin-HRP; blocked partner: Tie2/Fc
Procedure: Clones tested positive in the Ang2 binding assay are screened for their ability to block Ang2 binding to Tie2/Fc. For this, Nanobody-containing periplasmic extracts (P.E.) are used in an ELISA-based ligand competition setup. In short, 4 ug/ml human Tie2/Fc Chimera (R&D Systems Cat No 313-TI, Lot No BKC06)) is coated in 96 well Maxisorp microliter plates (Nunc) and blocked with 4% Marvel skimmed milk in PBS. In parallel, 0.05 ug/ml biotinylated rh Ang2 (R&D Systems Cat No BT623, Lot No BNR174091) is incubated with 10 ul of periplasmic extract containing nanobody of the different clones in 100 ul 2% Marvel/PBS. After 1 hour, the biotinylated Ang2-Nanobody pre-mixes are incubated 1 hour with the coated receptor. Bound biotinylated. Ang2 is detected using HRP-conjugated extravidin (SIGMA E2886-1mL, 126K4801). Blocking activity is determined as loss of OD signal, as compared to wells where no P.E., or irrelevant P.E., has been added.

binding result | Binder
binds | B11
binds | B12
binds | B13
binds | B14

biological target: T4, recombinant human Tie2/Fc Chimera (R&D Systems Cat No 313-TI, Lot No BKC06) (human, UniProt Q02763 23-745); assay: competition ELISA: 0.2 ug/ml Tie2/Fc pre-incubated with 10 ul periplasmic extract, then on coated Ang1 (0.75 ug/ml); bound Tie2/Fc detected with anti-human IgG-HRP; blocked ligand: Ang1
T4 construct: Bought reagent; also called receptor; not shown: Fc portion of the bought chimera
Procedure: Clones tested positive in the Tie2 binding assay are screened for their ability to block Ang1 binding to Tie2/Fc. For this, Nanobody-containing periplasmic extracts (P.E.) are used in an ELISA-based ligand competition setup. In short, 0.75 ug/ml human Ang1 (R&D Systems Cat No 923-AN/CF Lot No FHWO73091) is coated in 96 well Maxisorp microtiter plates (Nunc) and blocked with 4% Marvel skimmed milk in PBS. In parallel, 0.2 ug/ml Tie2/Fc is incubated with 10 ul of periplasmic extract P.E. containing nanobody of the different clones in 100 ul 2% Marvel/PBS. After 1 hour, the receptor-Nanobody pre-mixes are incubated 1 hour with the coated ligand. Bound Tie2/Fc is detected using HRP-conjugated goat anti-human IgG (Jackson Immunoresearch, Cat #109-035-098). Blocking activity is determined as loss of OD signal, as compared to wells where no P.E., or irrelevant P.E., has been added.

T4 sequence (Q02763 23-745, change not shown): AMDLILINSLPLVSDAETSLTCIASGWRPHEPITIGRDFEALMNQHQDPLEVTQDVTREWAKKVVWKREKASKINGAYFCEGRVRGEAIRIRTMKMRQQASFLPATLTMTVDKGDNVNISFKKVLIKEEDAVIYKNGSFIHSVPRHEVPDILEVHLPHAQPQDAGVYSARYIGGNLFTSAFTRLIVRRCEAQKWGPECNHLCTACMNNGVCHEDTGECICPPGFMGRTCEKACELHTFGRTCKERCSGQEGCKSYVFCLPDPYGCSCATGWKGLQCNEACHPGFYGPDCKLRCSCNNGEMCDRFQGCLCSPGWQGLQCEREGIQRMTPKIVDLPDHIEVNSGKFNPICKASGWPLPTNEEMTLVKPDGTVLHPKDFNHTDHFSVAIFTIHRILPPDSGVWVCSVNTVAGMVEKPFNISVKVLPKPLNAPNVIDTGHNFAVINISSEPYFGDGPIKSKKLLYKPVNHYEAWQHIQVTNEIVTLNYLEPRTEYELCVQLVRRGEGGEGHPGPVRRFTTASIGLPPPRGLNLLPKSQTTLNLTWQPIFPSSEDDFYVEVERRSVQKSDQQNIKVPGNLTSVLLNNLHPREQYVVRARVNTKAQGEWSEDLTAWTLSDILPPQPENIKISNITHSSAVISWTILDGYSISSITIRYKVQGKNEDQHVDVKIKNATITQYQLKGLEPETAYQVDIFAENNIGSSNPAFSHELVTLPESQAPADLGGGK

binding result | Binder
binds | B15
binds | B16
binds | B17
binds | B18
binds | B19
binds | B20

biological target: T3, Recombinant human Angiopoietin-2 (R&D …); assay: phage ELISA: 10 ul monoclonal phage supernatant in 100 ul on 0.2 ug/ml coated Ang2, anti-M13-HRP, OD 450 nm
Procedure: In order to determine binding specificity to Ang2, the clones are tested in an ELISA binding assay setup, using the monoclonal phage pools. Phage binding to Ang2 (R&D Systems Cat No 623-AN/CF) is tested. Shortly, 0.2 ug/ml Ang2 is immobilized on Maxisorp ELISA plates (Nuns) and free binding sites are blocked using 4% Marvel skimmed milk in PBS. Next, 10 ul of supernatant from the monoclonal phage inductions of the different clones in 100 ul 2% Marvel. PBS are allowed to bind to the immobilized antigen. […] Binding specificity is determined based on OD values compared to controls having received an irrelevant phage or no phage.

binding result | Binder
binds | B21
binds | B11
binds | B12
binds | B22
binds | B13
binds | B14
